We go through five molecules from US20210107983A1 (Boehringer Ingelheim, published 2021).

Experiment [1] has as its target T1, human B7H6 on HCT-15 cells (human, UniProt Q68D85 25-454).
T1 sequence (looked up): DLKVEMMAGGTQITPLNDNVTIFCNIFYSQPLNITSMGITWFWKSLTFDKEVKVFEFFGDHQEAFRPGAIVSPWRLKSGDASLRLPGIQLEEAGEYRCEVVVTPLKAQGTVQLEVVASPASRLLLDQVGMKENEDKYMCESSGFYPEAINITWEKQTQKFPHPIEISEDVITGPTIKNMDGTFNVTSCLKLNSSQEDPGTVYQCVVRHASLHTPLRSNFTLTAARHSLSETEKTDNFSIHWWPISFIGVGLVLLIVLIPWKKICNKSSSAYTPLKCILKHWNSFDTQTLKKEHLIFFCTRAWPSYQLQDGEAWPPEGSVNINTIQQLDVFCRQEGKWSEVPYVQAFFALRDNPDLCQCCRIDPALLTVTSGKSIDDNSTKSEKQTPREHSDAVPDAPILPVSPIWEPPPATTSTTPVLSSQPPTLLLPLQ
The experiment can be described thus: cell-based or functional assay.

Experiment [2] deals with T1, human B7H6 on HCT-15 cells. Nature of the experiment: flow cytometry on HCT-15 cells, PE anti-human secondary antibody. As to the method:
Binding of B7H6/CD3 binding proteins to HCT-15, a human (colo-rectal cancer) CRC cell line was tested by flow cytometry. In a previous experiment, it has been confirmed that HCT-15 cells expresses B7-H6 on the RNA levels as well as the protein level with approximately 8,000 B7-H6 receptors on the cell surface (data not shown). B7H6/CD3 binding proteins were produced, as described in Example 2. HCT-15 cells were stained with increasing concentrations of two-step purified B7H6/CD3 binding proteins in FACS buffer (PBS/0.5% BSA/0.05% sodium azide). Bound molecules were detected with PE-conjugated anti-human secondary antibody (Sigma-Aldrich, #P8047).

The target in experiment [3] is T2, Fc-His-tagged human B7H6 ECD (human).
T2 construct: also called huB7H6-ECD-Fc-His; recombinant human B7H6 ECD
The experiment can be described thus: ELISA, plate coated with Fc-His-tagged human B7H6 ECD, anti-human IgG F(ab')2-peroxidase, TMB. As to the method: (§1) To assess binding of B7H6/CD3 binding proteins to recombinant human Fc-His-tagged B7H6 ECD and human Fc-His-tagged Ala-mutated B7H6 extracellular proteins as described in Example 3, MediSorp™ plates (Nunc, 467320) were coated with […] recombinant proteins overnight at 4° C. The next day, plates were blocked with 0.5% bovine serum albumin (BSA) in phosphate buffered saline (PBS) for 1 hour at room temperature (RT). Subsequently plates were washed with […] containing 0.05% TWEEN®20 viscous liquid and B7H6/CD3 binding proteins were incubated at concentrations ranging from 0.00001 to 10 μg/ml. After an additional washing step, bound B7H6/CD3 binding proteins were detected by a peroxidase conjugated goat anti-human IgG F(ab′)₂-specific secondary antibody (Jackson Immunoresearch) and visualized by TMB substrate solution (Bender Med Systems).

Experiment [4] concerns the target T3, Fc-His-tagged human Ala-mutated B7H6 ECD (human).
T3 construct: also called huB7H6-Ala-ECD
The experiment can be described thus: ELISA, plate coated with Fc-His-tagged human Ala-mutated B7H6 ECD, anti-human IgG F(ab')2-peroxidase, TMB. On the procedure: as §1
For orientation: An ELISA detects its analyte on a solid surface through an enzyme-linked reagent.

B1: B7H6#10/CD3#1 (bispecific antibody, human IgG1, kappa, lambda, L234A L235A)
chain 1: DIQMTQSPSSVSASVGDRVTITCRASQGISSWLAWYQQKPGKAPKLLIYVASSLQRGVPSRFSGSGSGTDFTLTISNLQPEDFATYYCQQANSFPRTFGQGTKVEIKRTVAAPSVFIFPPSDEQLKSGTASVVCLLNNFYPREAKVQWKVDNALQSGNSQESVTEQDSKDSTYSLSSTLTLSKADYEKHKVYACEVTHQGLSSPVTKSFNRGECGGGGSEGKSSGSGSESKSTEGKSSGSGSESKSTGGGGSQVHLQESGPGLVKPSETLSLTCTVSGDSISSYYWSWIRQPAGKGLEWIGHIYTSEKNNYNPSLKSRVIMSVDTSKNQFSLNLSSVTAADTAVYYCARVGNWGSHDAWGQGTLVTVSSASTKGPSVFPLAPSSKSTSGGTAALGCLVKDYFPEPVTVSWNSGALTSGVHTFPAVLQSSGLYSLSSVVTVPSSSLGTQTYICNVNHKPSNTKVDKRVEPKSCDKTHTCPPCPAPEAAGGPSVFLFPPKPKDTLMISRTPEVTCVVVDVSHEDPEVKFNWYVDGVEVHNAKTKPREEQYNSTYRVVSVLTVLHQDWLNGKEYKCKVSNKALPAPIEKTISKAKGQPREPQVYTLPPSREEMTKNQVSLWCLVKGFYPSDIAVEWESNGQPENNYKTTPPVLDSDGSFFLYSKLTVDKSRWQQGNVFSCSVMHEALHNHYTQKSLSLSPG
chain 2: EAVVTQEPSLTVSPGGTVTLTCRSSTGAVTTSNYANWVQEKPGQLPRGLIGGTNKRAPWVPARFSGSLLGGKAALTLSGAQPEDEAEYFCALWYSNLWVFGGGTKLTVLGQPKAAPSVTLFPPSSEELQANKATLVCLISDFYPGAVKVAWKADGSPVNTGVETTTPSKQSNNKYAASSYLSLTPEQWKSHRSYSCQVTHEGSTVEKTVAPAECSGGGGSEGKSSGSGSESKSTEGKSSGSGSESKSTGGGGSEVQLVESGGGLVQPGGSLKLSCAASGFTFNTYAMNWVRQAPGKGLEWVARIRSKYNNYATYYADSVKDRFTISRDDSKNTAYLQMNNLKTEDTAVYYCVRHGNFGNSYVSWFAYWGQGTLVTVSAASTKGPSVFPLAPSSKSTSGGTAALGCLVKDYFPEPVTVSWNSGALTSGVHTFPAVLQSSGLYSLSSVVTVPSSSLGTQTYICNVNHKPSNTKVDKRVEPKSCDKTHTCPPCPAPEAAGGPSVFLFPPKPKDTLMISRTPEVTCVVVDVSHEDPEVKFNWYVDGVEVHNAKTKPREEQYNSTYRVVSVLTVLHQDWLNGKEYKCKVSNKALPAPIEKTISKAKGQPREPQVYTLPPSREEMTKNQVSLSCAVKGFYPSDIAVEWESNGQPENNYKTTPPVLDSDGSFFLVSKLTVDKSRWQQGNVFSCSVMHEALHNRFTQKSLSLSPG
notes: scFab-Fc heterodimer, one B7H6 chain and one CD3 chain
A word on the EC50 (read off the curve): it is the concentration that produces a half-maximal response. Lower therefore signals higher potency in that assay. Turning to B1, the “EC50 [nM], 72 hour cytotoxicity assay, non-stimulated T-cells (Donor #1) as effector cells, HCT-15 cells as target cells” value in experiment [1] came to 0.53 nM. Further, the “EC50 (read off the curve)” value in experiment [2] was roughly 0.9 nM; in experiment [3] it was roughly 0.05 µg/mL.

B2: B7H6#8/CD3#1 (bispecific antibody, human IgG1, kappa, lambda, L234A L235A)
chain 1: DIVMTQSPLSLPVTPGEPASISCRSSQSLLYNNRYNYLDWYLQKPGQSPEVLIYLGSNRASGVPDRFSGSGSGTDFTLKISRVEAEDFGVYYCMQTLQIPITFGQGTRLEIKRTVAAPSVFIFPPSDEQLKSGTASVVCLLNNFYPREAKVQWKVDNALQSGNSQESVTEQDSKDSTYSLSSTLTLSKADYEKHKVYACEVTHQGLSSPVTKSFNRGECGGGGSEGKSSGSGSESKSTEGKSSGSGSESKSTGGGGSQVQVVQSGAEVKKPGSSVKVSCKGSGDTLNSYGISWMRQAPGQGLEWMGGIIPIFDTTKYAQKFQGRVTITADKSTTTVYMELSSLRFEDTAVYYCARERGYRFSEDYYFYYGMDVWGQGTTVTVSSASTKGPSVFPLAPSSKSTSGGTAALGCLVKDYFPEPVTVSWNSGALTSGVHTFPAVLQSSGLYSLSSVVTVPSSSLGTQTYICNVNHKPSNTKVDKRVEPKSCDKTHTCPPCPAPEAAGGPSVFLFPPKPKDTLMISRTPEVTCVVVDVSHEDPEVKFNWYVDGVEVHNAKTKPREEQYNSTYRVVSVLTVLHQDWLNGKEYKCKVSNKALPAPIEKTISKAKGQPREPQVYTLPPSREEMTKNQVSLWCLVKGFYPSDIAVEWESNGQPENNYKTTPPVLDSDGSFFLYSKLTVDKSRWQQGNVFSCSVMHEALHNHYTQKSLSLSPG
chain 2: B1 chain 2
notes: as for B1
As for B2, in experiment [4], the binding result is “no binding (tested: 10 µg/ml)”. For the same molecule, the “EC50 [nM], 72 hour cytotoxicity assay, non-stimulated T-cells (Donor #1) as effector cells, HCT-15 cells as target cells” value in experiment [1] stood at 0.62 nM. Further, the results for the “EC50 (read off the curve)” value in experiment [2] and in experiment [3] were roughly 0.4 nM and roughly 0.05 µg/mL, respectively.

B3: B7H6#7/CD3#1 (bispecific antibody, human IgG1, kappa, lambda, L234A L235A)
chain 1: DIQMTQSPSSVSASVGDRVTITCRASQGISSWLAWYQQKPGKAPNLLIYAASSLQSGVPSRFSGSGSGTDFTLTISSLQPEDFATYYCQQANSFPRTFGQGTKVEIKRTVAAPSVFIFPPSDEQLKSGTASVVCLLNNFYPREAKVQWKVDNALQSGNSQESVTEQDSKDSTYSLSSTLTLSKADYEKHKVYACEVTHQGLSSPVTKSFNRGECGGGGSEGKSSGSGSESKSTEGKSSGSGSESKSTGGGGSQVQLQESGPGLVKPSETLSLTYTVSGGSISYNYWSWIRQPPEKGLEWIGHIYYSGSTNYNPSLKSRVTISVDTSKNQFSLKLNSVTAADTAVYYCARVGTWGSFDDWGQGTLVTVSSASTKGPSVFPLAPSSKSTSGGTAALGCLVKDYFPEPVTVSWNSGALTSGVHTFPAVLQSSGLYSLSSVVTVPSSSLGTQTYICNVNHKPSNTKVDKRVEPKSCDKTHTCPPCPAPEAAGGPSVFLFPPKPKDTLMISRTPEVTCVVVDVSHEDPEVKFNWYVDGVEVHNAKTKPREEQYNSTYRVVSVLTVLHQDWLNGKEYKCKVSNKALPAPIEKTISKAKGQPREPQVYTLPPSREEMTKNQVSLWCLVKGFYPSDIAVEWESNGQPENNYKTTPPVLDSDGSFFLYSKLTVDKSRWQQGNVFSCSVMHEALHNHYTQKSLSLSPG
chain 2: B1 chain 2
notes: as for B1
As for B3, the “EC50 [nM], 72 hour cytotoxicity assay, non-stimulated T-cells (Donor #1) as effector cells, HCT-15 cells as target cells” value in experiment [1] was determined as 0.36 nM. Besides, the “EC50 (read off the curve)” value in experiment [2] is roughly 1 nM; in experiment [3], roughly 0.05 µg/mL.

B4: B7H6#6/CD3#1 (bispecific antibody, human IgG1, kappa, lambda, L234A L235A)
chain 1: DIVMTQSPDSLPVSAGDRVTITCKASQSVSNDVVWYQQKPGQSPKLLMYSTSNRYIGVPDRFTGSGYGTDFTFTISTVQAEDLAVYFCQQDYSSPYTFGGGTKLEIKRTVAAPSVFIFPPSDEQLKSGTASVVCLLNNFYPREAKVQWKVDNALQSGNSQESVTEQDSKDSTYSLSSTLTLSKADYEKHKVYACEVTHQGLSSPVTKSFNRGECGGGGSEGKSSGSGSESKSTEGKSSGSGSESKSTGGGGSEVQLQQSGPELLKPGASVKISCKTSGYTFTDYTMHWVKQSHGKSLEWIGGINPNYDNTGYSEKFKDKATLTVDKSSSTAYMELRSLTSEDSAVYYCTRSGSRRSFYFDYWGQGTTLTVSSASTKGPSVFPLAPSSKSTSGGTAALGCLVKDYFPEPVTVSWNSGALTSGVHTFPAVLQSSGLYSLSSVVTVPSSSLGTQTYICNVNHKPSNTKVDKRVEPKSCDKTHTCPPCPAPEAAGGPSVFLFPPKPKDTLMISRTPEVTCVVVDVSHEDPEVKFNWYVDGVEVHNAKTKPREEQYNSTYRVVSVLTVLHQDWLNGKEYKCKVSNKALPAPIEKTISKAKGQPREPQVYTLPPSREEMTKNQVSLWCLVKGFYPSDIAVEWESNGQPENNYKTTPPVLDSDGSFFLYSKLTVDKSRWQQGNVFSCSVMHEALHNHYTQKSLSLSPG
chain 2: B1 chain 2
notes: as for B1
In the case of B4, in experiment [4], the binding result is “no binding (tested: 10 µg/ml)”. Further, in experiment [1], the “EC50 [nM], 72 hour cytotoxicity assay, non-stimulated T-cells (Donor #1) as effector cells, HCT-15 cells as target cells” value worked out at 0.46 nM. In experiment [3], the “EC50 (read off the curve)” value is roughly 0.05 µg/mL.

B5: B7H6#4/CD3#1 (bispecific antibody, human IgG1, kappa, lambda, L234A L235A)
chain 1: DIVMTQSQKFMSTSVGDRVSVTCKASQNVGKYVAWYQQKPGQSPKALIYSASNRYDGVPDRFTGSGSGTDFTLTITNVQSEDLTEYFCQQYISYPLTFGAGTKLELKRTVAAPSVFIFPPSDEQLKSGTASVVCLLNNFYPREAKVQWKVDNALQSGNSQESVTEQDSKDSTYSLSSTLTLSKADYEKHKVYACEVTHQGLSSPVTKSFNRGECGGGGSEGKSSGSGSESKSTEGKSSGSGSESKSTGGGGSQVQLQQPGSVLVRPGASVRLSCKASGYTFTNYWMNWMKQRPGQGLEWIGGIYLNGDSTDYNEKFKGKATLTVDTSSSTTYMDLSSLTYEDSAVYYCTTRGDYFGDFWGQGTTLTVSSASTKGPSVFPLAPSSKSTSGGTAALGCLVKDYFPEPVTVSWNSGALTSGVHTFPAVLQSSGLYSLSSVVTVPSSSLGTQTYICNVNHKPSNTKVDKRVEPKSCDKTHTCPPCPAPEAAGGPSVFLFPPKPKDTLMISRTPEVTCVVVDVSHEDPEVKFNWYVDGVEVHNAKTKPREEQYNSTYRVVSVLTVLHQDWLNGKEYKCKVSNKALPAPIEKTISKAKGQPREPQVYTLPPSREEMTKNQVSLWCLVKGFYPSDIAVEWESNGQPENNYKTTPPVLDSDGSFFLYSKLTVDKSRWQQGNVFSCSVMHEALHNHYTQKSLSLSPG
chain 2: B1 chain 2
notes: as for B1
Take B5: the “EC50 (read off the curve)” value was roughly 0.2 µg/mL in experiment [4] and roughly 0.05 µg/mL in experiment [3]. Moreover, in experiment [1], the “EC50 [nM], 72 hour cytotoxicity assay, non-stimulated T-cells (Donor #1) as effector cells, HCT-15 cells as target cells” value worked out at 0.23 nM.
